Laboratory results published in patent publication US12065466B2, “Methods and compositions for protein sequencing” (Quantum-Si Incorporated, priority 2020, dated 2024).
Blank lines part the entries; values can stand above or below the molecule they belong to.

System: amino acid at a terminal position of a polypeptide
Assay: Amino acid binding preference of recognition proteins (Tables 1 and 2)
Conditions: Table 1, ClpS proteins; amino acid identity at a terminal position of a polypeptide; inferred from literature and/or demonstrated by the inventors
Excerpt: It should be appreciated that these sequences and other examples described herein are meant to be non-limiting, and recognition molecules in accordance with the application can include any homologs, variants thereof, or fragments thereof minimally containing domains or subdomains responsible for peptide recognition.

Binding Pref.: I, L, V
B1: PS559: PS372-homologous ClpS protein, SEQ ID NO: 73 (protein, listed as Planctomycetaceae bacterium)
chain: MNQAAISPNPDIKPNPSTHKKRASQRQPRYHVILWNDNDHTYHYVVTMLQKLFGHPPRTGIKMATEVDKKGKVIVLTTSREHAELKRDQIHAFGADKLIRRSKGAMAASIEPES

Binding Pref.: I, L, V
B2: PS546: PS372-homologous ClpS protein, SEQ ID NO: 60 (protein, listed as Planctomycetales bacterium)
chain: MSDTITLPGRPEVERDERTRRQPPYNVILHNDDDHTFEYVIVMLNQLFGYPPEKGYEMAKEVHLNGRVIVLTTSKEHAELKRDQIHAFGPDPFSSKDCKGSMSASIEPAY

Binding Pref.: F, W
B3: PS432: ClpS protein, SEQ ID NO: 55 (protein)
chain: MIGVEARTSSAPELAIETEIRLAGLWHVIVINDPVNLMSYVVMVLRKIFGFDDTKARKHMLEVHENGRSIVWSGEREPAEAYANTLHQWHLSAVLERDETD

Binding Pref.: I, L, V
B4: PS561: PS372-homologous ClpS protein, SEQ ID NO: 75 (protein)
chain: MAELQTAVVEPTTRPEQDEKQSQSRPKRQPRYNVILWDDPDHSYDYVIMMLKELFGHPRQRGHQMAEEVDTTGRVICLTTTMEHAELKRDQIHAYGSDEGITRCKGSMSASIEPVPE
modifications: Roseimaritima sp. JC651

Binding Pref.: I, L, V
B5: PS554: PS372-homologous ClpS protein, SEQ ID NO: 68 (protein, listed as Planctomycetes bacterium)
chain: MSDSASATVEVQADPPADATARSQPTPARSTGSKPKRQPRYHVVLWNDDDHTYEYVIAMLRRLFGIEPEKGFRIAEEVDQSGRAVVLTTTREHAELKRDQIHAFGADRLLARSKGSMSASIEPEA

Binding Pref.: I, L, V
B6: PS552: PS372-homologous ClpS protein, SEQ ID NO: 66 (protein)
chain: MSKTSTLPEVESESAQKLKYQPPYHVILLNDDDHSYVYVITMLKELFGHPEQKGYQLADAVDKQGRAIVFTTTREHAELKQEQIHAYGPDPTIPRCKGAMTAVIEPAE
modifications: Fimbriiglobus ruber

Binding Pref.: I, L, V
B7: PS550: PS372-homologous ClpS protein, SEQ ID NO: 64 (protein, listed as Planctomycetes bacterium)
chain: MPTFTEPEVVNDTRILPPYHVILLNDDDHTYEYVIHMLQTLFGHPQERGFQLAVEVDKKGKAIVFTTSKEHAEFKRDQIHAFGADPLSSKNCKGSMSAVIEPSF

Binding Pref.: I, L, V
B8: PS556: PS372-homologous ClpS protein, SEQ ID NO: 70 (protein, listed as Blastopirellula marina)
chain: MGDSNTSVAEPGEVTVVTTKPAPKKAKPKRQPKYHVVLWNDDDHTYEYVILMMHELFGHPVEKGFQIAKTVDADGRAICLTTTKEHAELKRDQIHAYGKDELIARCRGSMSSTIEPEC

Binding Pref.: I, L, V
B9: PS563: PS372-homologous ClpS protein, SEQ ID NO: 77 (protein, listed as Acidobacteria bacterium)
chain: MSSRSATAYPEVEDDTSDQLQPLYHVILLNDEDHTYDYVIEMLQKIFGFPESKAFSHAVEVDTKGTTILLTCDLEQAERKRDLIHSYGPDWRLPRSLGSMAAVVEPAAG

Binding Pref.: I, L, V
B10: PS562: PS372-homologous ClpS protein, SEQ ID NO: 76 (protein, listed as Rubripirellula amarantea)
chain: MSDQQSMVAEPEVVVHTQDEKKLEKQNKRKKQPRYNVVLWDDTDHSYDYVVLMMKQLFHHPIETGFQIAKQVDKGGKAICLTTTMEHAELKRDQIHAFGKDDLIARCTGSMSATIEPVPE

Binding Pref.: I, L, V
B11: PS565: PS372-homologous ClpS protein, SEQ ID NO: 79 (protein)
chain: MSEFDHEHSGDTSVADPIVTTKTAPKPQKHAENETETRRQPPYNVIILNDEEHTFDYVIELLCKVFRHSLATAQELTWRIHLTGRAVVLTTHKELAELKRDQVLAYGPDPRMSVSKGPLDCFIEPAPGG
modifications: Aquisphaera sp. JC650

Binding Pref.: F, Y, W, L
B12: PS430: ClpS protein, SEQ ID NO: 53 (protein)
chain: MQPFEETYTDVLDEVVDTDVHNLVVFNDDVNTFDHVIETLIDVCKHTPEQAEQCTLLIHYKGKCSVKNGSWEELVPMRNEICRRGISAEVLK

Binding Pref.: I, L, V
B13: PS551: PS372-homologous ClpS protein, SEQ ID NO: 65 (protein, listed as Rubrobacter indicoceani)
chain: MPSAAPAKPKTKRQSRTQGMPPYNVVLLDDDDHTYGYVIEMLNKVFGHPPEKGFELATEVDKNGRVIVMTTNLEVAELKRDEVHAFGPDPLMPRSKGSMSAVVERAG

Binding Pref.: F, Y, W, L
B14: PS433: ClpS protein, SEQ ID NO: 56 (protein)
chain: MMSSLKECSIQALPSLDEKTKTEEDLSVPWKVIVLNDPVNLMSYVVMVFRKVFGYNENKATKHMMEVHQLGKSVLWTGQREEAECYAYQLQRWRLQTILEKDD

Binding Pref.: F, Y, W, L
B15: PS374: ClpS protein, SEQ ID NO: 7 (protein)
chain: MRWEDPLAAEPVTPGVAPVVEEETDAAVETPWRVILYDDDIHTFEEVILQLMKATGCTPEQGERHAWTVHTRGKDCVYQGDFFDCFRVQGVLREIQLVTEIEG

Binding Pref.: I, L, V
B16: PS547: PS372-homologous ClpS protein, SEQ ID NO: 61 (protein, listed as Gemmataceae bacterium)
chain: MGFPTDFRQSIEISTPLGSQQPRFSNASSEPALADPVLVINPRIQPRYHVILLNDDDHTYRYVIEMMLIVFGHPPEKGFLIAKEVDKAGRAICLTTSLEHAEFKQEQVHAYGADPYFGPKCKGSMTAVLEPAE

Binding Pref.: F, Y, W, L
B17: PS434: ClpS protein, SEQ ID NO: 57 (protein)
chain: MSRLPWKQEAKFAATVIIDFPDATLEAPTIEKKEATEQQIEMPWNVVVHNDPVNLMSYVTMVFQRVFGYPRERAEKHMLEVHHSGRSILWSGLRERAELYVQQLHGYLLLATIEKTV

Binding Pref.: I, L, V
B18: PS558: PS372-homologous ClpS protein, SEQ ID NO: 72 (protein, listed as Planctomycetes bacterium)
chain: MTATTADPDRTTAEKTTKKARRSGQPKRQPRYHVILWNDNDHTYQYVVAMLQQLFGHPATTGLKLATEVDRTGRAVILTTTREHAELKRDQIHAFGADRLLARSKGAMSASIEPEAE

Binding Pref.: I, L, V
B19: PS555: PS372-homologous ClpS protein, SEQ ID NO: 69 (protein)
chain: MADSAQTGVAEPIQETLRRRKLRDDRRPKRQPPYHVILWNDNDHTYAYVVVMLMQLFGYPAEKGYQLASEVDTQGRAVVLTTTKEHAELKRDQIHAYGKDGLIEKCKGSMWATIEPAPGE
modifications: Planctomycetes bacterium RBG_16_64_12

Binding Pref.: I, L, V
B20: PS560: PS372-homologous ClpS protein, SEQ ID NO: 74 (protein, listed as Planctomycetes bacterium)
chain: MTETITTPAERTQTQAEPRSDRAWLWNVVLLDDDEHTYEYVIRMLHTLFGMPVERAFRLAEEVDARGRAVVLTTHKEHAELKRDQVHAFGKDALIASCAGSMSAVLEPAECGSDDED

Binding Pref.: I, L, V
B21: PS566: PS372-homologous ClpS protein, SEQ ID NO: 80 (protein, listed as Planctomycetaceae bacterium)
chain: MSSPSSLDDVQVSTSRAKPANETRTRKQPPYAVIVENDDHHTFLYVIEALMKVCGHAPEKGFVLAQQIHTQGKAMVWSGTLELAELKRDQLRGFGPDNYAPRPVTFPLGVTIEPLP

Binding Pref.: I, L, V
B22: PS548: PS372-homologous ClpS protein, SEQ ID NO: 62 (protein, listed as Gemmataceae bacterium)
chain: MSDTITLPEEKTDVRTKRQPPYHVILLNDDDHTYQYVIYMLQTLFGHPPETGFKMAQEVDKTGRVIVDTTSLERAELKRDQIHAFGPDPYIERCKGSMSAMIEPSE

Binding Pref.: I, L, V
B23: PS549: PS372-homologous ClpS protein, SEQ ID NO: 63 (protein, listed as Planctomycetes bacterium)
chain: MSESITTLPKKSRRLKEEEEQKTKRQPPYNVILLNDDDHTFEYVIFMLQKLFGHPPERGMQMAKEVHTTGRVIVMTTALELAELKRDQIHAFGPDPLIDRCKGSMSATIEPAPI

Binding Pref.: F, Y, W, L
B24: PS435: ClpS protein, SEQ ID NO: 58 (protein)
chain: MTLSVALGPDTQESTQTGTAVSTDTLTAPDIPWNLVIWNDPVNLMSYVSYVFQSYFGYSETKANKLMMEVHKKGRSIVAHGSKEQVEQHAVAMHGYGLWATVEKATGGNSGGGKSGGPGKGKGKRG

Binding Pref.: I, L, V
B25: PS545: PS372-homologous ClpS protein, SEQ ID NO: 59 (protein, listed as Planctomycetales bacterium)
chain: MSEPMTLPAIPQPRLKERTQRQPPYNVILLNDDDHSYEYVIAMLQVLFGYPREKGYQMAKEVDSTGRVILLTTTREHAELKQEQIHAFGPDPLMARCQGSMTAVIEPAV

Binding Pref.: I, L, V
B26: PS553: PS372-homologous ClpS protein, SEQ ID NO: 67 (protein, listed as Planctomycetes bacterium)
chain: MPASASAVTEPPVSLPEAAAPRPKDRPKRQPRYHVILWNDDDHTYQYVVAMLRQLFGHPPEKGFTLAKQVDKDGRVVVLTTTKEHAELKRDQIHAFGADRLLARSKGSMSASIEPEASTG

Binding Pref.: I, L, V
B27: PS564: PS372-homologous ClpS protein, SEQ ID NO: 78 (protein)
chain: MFEEVVSVAVAEPKTKKQSRTKPKRQPPYHVILWDDTDHTFDYVIKMMGELFRMPREKGYQLAKEVDTSGRAICMTTTLELAELKRDQIHAFGRDDASAHCKGSMSATIEPAEG
modifications: Planctomycetes bacterium Poly21
